Experimental findings from article PMC2811263 (Arteriosclerosis, thrombosis, and vascular biology, 2009) are described below.

For assay [1], the target named is T1, wild-type human GPIHBP1 (glycosylphosphatidylinositol-anchored high-density lipoprotein-binding protein 1) (human, UniProt Q8IV16 21-151).
T1 sequence (looked up): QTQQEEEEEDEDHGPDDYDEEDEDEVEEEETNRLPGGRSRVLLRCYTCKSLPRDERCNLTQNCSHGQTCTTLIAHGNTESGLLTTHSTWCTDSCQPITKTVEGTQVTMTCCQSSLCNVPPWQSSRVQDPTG
Nature of the assay: binding of added LPL to transfected cells, bound LPL quantified by ELISA.

The target in another assay is T2, wild-type mouse GPIHBP1 (mouse, UniProt Q9D1N2 23-198).
T2 sequence (looked up): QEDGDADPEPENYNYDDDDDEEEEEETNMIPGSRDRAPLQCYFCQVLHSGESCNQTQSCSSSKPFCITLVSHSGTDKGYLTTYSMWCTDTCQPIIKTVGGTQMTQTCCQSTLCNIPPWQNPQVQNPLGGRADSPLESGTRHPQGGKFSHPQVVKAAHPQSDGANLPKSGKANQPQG
The assay is described as above.

B1: avian lipoprotein lipase (LPL) (enzyme, UniProt P11602 26-490, looked up)
chain: SDPEAEMNFEGIESKFSLRTPAEPDEDVCYLVPGQMDSLAQCNFNHTSKTFVVIHGWTVTGMYESWVPKLVDALYKREPDSNVIVVDWLVRAQQHYPVSAAYTKLVGKDVAMFIDWMEEKFNYPLNNVHLLGYSLGAHAAGIAGSLTKKKVNRITGLDPAGPTFEYADAPIRLSPDDADFVDVLHTYTRGSPDRSIGIQKPVGHIDIYPNGGGFQPGCNLGEALRLIAEKGFSDVDQLVKCSHERSIHLFIDSLLYEEKPSMAYRCNTKEAFEKGLCLSCRKNRCNNLGYKVNRVRTKRNTKMYLKTRAQMPYKVFHYQVKIHFFGKTNVTKVDQPFLISLYGTLDESENIPFTLPEVSSNKTFSFLIYTEVDIGDLLMLKLQWEKDTFFSWSDWWTPFAFTIQRVRVKSGETQKKVVFCSRDGSSRLGKGEEAAIFVKCLEQPVSRKRGGAKKASKENSAHESA
Turning to B1, the “fold more LPL bound than by cells expressing GPIHBP1-Q115P” value in assay [1] amounted to 39.8 fold. Besides, in the assay with wild-type mouse GPIHBP1, the “fold more LPL bound than by cells expressing GPIHBP1-Q114P” value amounted to 20.2 fold.
